In article PMC10782416, “Fluorescence Correlation Spectroscopy as a Versatile Method to Define Aptamer–Protein Interactions with Single-Molecule Sensitivity”:

Assays:
[1] = target: T1, c-Met (soluble recombinant, hepatocyte growth factor receptor) (Homo sapiens, UniProt P08581 25-932); assay: FCS; c-Met up to 100 nM; PBS pH 7.4; aptamer folded in PBS with 5 mM MgCl2 (1 mM for AS1411 and 36t), 90 C 2 min then cooled; final buffer not detailed; overnight at room temperature; 100 pM aptamer (1 nM for serum proteins); conditions: protein: commercial; tags: polyhistidine tag; chain copies: 2; label: 5'-atto633; G-quadruplex destabilized
PDGF-BB = PDGF-BB (Homo sapiens, UniProt P01127 82-190); assay: FCS; 1 mg/mL BSA; 1 mM Mg2+ in folding buffer; titration regime; PBS pH 7.4; aptamer folded in PBS with 5 mM MgCl2 (1 mM for AS1411 and 36t), 90 C 2 min then cooled; final buffer not detailed; overnight at room temperature; 100 pM aptamer (1 nM for serum proteins); conditions: protein: commercial; chain copies: 2; label: 5'-atto633
nucleolin (NCL) = nucleolin (NCL) (Homo sapiens, UniProt P19338 1-710); assay: FCS; 1 mM Mg2+ in folding buffer; PBS pH 7.4; aptamer folded in PBS with 5 mM MgCl2 (1 mM for AS1411 and 36t), 90 C 2 min then cooled; final buffer not detailed; overnight at room temperature; 100 pM aptamer (1 nM for serum proteins); conditions: protein: commercial; label: 5'-atto633
transferrin (Tf) = transferrin (Tf) (Homo sapiens, UniProt P02787 20-698); assay: FCS; Tf 1-100 uM; PBS pH 7.4; aptamer folded in PBS with 5 mM MgCl2 (1 mM for AS1411 and 36t), 90 C 2 min then cooled; final buffer not detailed; overnight at room temperature; 100 pM aptamer (1 nM for serum proteins); conditions: protein: native; label: 5'-atto633; G-quadruplex
fibrinogen (Fibr) = fibrinogen (Fibr) (Homo sapiens, UniProt P02671;P02675;P02679 20-629;31-491;27-433); assay: FCS; fibrinogen 1-10 uM; PBS pH 7.4; aptamer folded in PBS with 5 mM MgCl2 (1 mM for AS1411 and 36t), 90 C 2 min then cooled; final buffer not detailed; overnight at room temperature; 100 pM aptamer (1 nM for serum proteins); conditions: protein: native; chain copies: 2;2;2; label: 5'-atto633; G-quadruplex
[2] = target: T1, c-Met (soluble recombinant, hepatocyte …); assay: FCS; 5 mM Mg2+ in folding buffer; 100 pM aptamer; PBS pH 7.4; aptamer folded in PBS with 5 mM MgCl2 (1 mM for AS1411 and 36t), 90 C 2 min then cooled; final buffer not detailed; overnight at room temperature; 100 pM aptamer (1 nM for serum proteins); conditions: protein: commercial; tags: polyhistidine tag; label: 5'-atto633; G-quadruplex
[3] = target: T1, c-Met (soluble recombinant, hepatocyte …); assay: FCS; serum protein mix: HSA, IgG, transferrin, fibrinogen; PBS pH 7.4; aptamer folded in PBS with 5 mM MgCl2 (1 mM for AS1411 and 36t), 90 C 2 min then cooled; final buffer not detailed; overnight at room temperature; 100 pM aptamer (1 nM for serum proteins); conditions: protein: commercial; tags: polyhistidine tag; label: 5'-atto633; G-quadruplex
[4] = target: T1, c-Met (soluble recombinant, hepatocyte …); assay: FCS kinetics (koff/kon); kon 1.70e4 M-1 s-1; koff 4.30e-4 s-1; PBS pH 7.4; aptamer folded in PBS with 5 mM MgCl2 (1 mM for AS1411 and 36t), 90 C 2 min then cooled; final buffer not detailed; overnight at room temperature; 100 pM aptamer (1 nM for serum proteins); conditions: protein: commercial; tags: polyhistidine tag; label: 5'-atto633; G-quadruplex

T1 sequence (P08581 25-932): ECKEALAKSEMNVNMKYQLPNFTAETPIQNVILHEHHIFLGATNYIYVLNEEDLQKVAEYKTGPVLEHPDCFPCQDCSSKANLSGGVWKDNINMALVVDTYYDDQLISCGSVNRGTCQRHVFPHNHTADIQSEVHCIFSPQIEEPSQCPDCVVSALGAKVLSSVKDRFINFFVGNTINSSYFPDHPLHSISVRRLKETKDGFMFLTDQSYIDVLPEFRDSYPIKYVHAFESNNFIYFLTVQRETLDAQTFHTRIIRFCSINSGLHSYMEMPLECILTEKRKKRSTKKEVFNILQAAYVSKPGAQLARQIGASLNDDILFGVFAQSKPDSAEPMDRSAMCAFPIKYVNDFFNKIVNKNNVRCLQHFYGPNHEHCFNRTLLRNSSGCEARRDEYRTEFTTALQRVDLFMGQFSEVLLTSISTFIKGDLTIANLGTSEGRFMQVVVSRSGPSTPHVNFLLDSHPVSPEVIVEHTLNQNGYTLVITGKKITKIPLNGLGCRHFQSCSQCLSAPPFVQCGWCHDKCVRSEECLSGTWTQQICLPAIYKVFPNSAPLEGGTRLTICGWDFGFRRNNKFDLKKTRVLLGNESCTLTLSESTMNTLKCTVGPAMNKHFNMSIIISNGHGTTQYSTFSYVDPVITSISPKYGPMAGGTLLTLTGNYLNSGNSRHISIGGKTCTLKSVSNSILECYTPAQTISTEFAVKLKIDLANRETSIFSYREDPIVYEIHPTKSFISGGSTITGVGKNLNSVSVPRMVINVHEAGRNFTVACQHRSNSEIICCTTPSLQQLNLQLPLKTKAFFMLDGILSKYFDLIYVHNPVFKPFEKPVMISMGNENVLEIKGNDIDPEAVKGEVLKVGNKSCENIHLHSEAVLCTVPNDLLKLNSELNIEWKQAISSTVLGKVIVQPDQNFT
Chain of PDGF-BB (P01127 82-190): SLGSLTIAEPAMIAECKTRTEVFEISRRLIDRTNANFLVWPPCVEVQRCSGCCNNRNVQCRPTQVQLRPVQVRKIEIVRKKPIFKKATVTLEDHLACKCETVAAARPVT
Chain of transferrin (Tf) (P02787 20-698): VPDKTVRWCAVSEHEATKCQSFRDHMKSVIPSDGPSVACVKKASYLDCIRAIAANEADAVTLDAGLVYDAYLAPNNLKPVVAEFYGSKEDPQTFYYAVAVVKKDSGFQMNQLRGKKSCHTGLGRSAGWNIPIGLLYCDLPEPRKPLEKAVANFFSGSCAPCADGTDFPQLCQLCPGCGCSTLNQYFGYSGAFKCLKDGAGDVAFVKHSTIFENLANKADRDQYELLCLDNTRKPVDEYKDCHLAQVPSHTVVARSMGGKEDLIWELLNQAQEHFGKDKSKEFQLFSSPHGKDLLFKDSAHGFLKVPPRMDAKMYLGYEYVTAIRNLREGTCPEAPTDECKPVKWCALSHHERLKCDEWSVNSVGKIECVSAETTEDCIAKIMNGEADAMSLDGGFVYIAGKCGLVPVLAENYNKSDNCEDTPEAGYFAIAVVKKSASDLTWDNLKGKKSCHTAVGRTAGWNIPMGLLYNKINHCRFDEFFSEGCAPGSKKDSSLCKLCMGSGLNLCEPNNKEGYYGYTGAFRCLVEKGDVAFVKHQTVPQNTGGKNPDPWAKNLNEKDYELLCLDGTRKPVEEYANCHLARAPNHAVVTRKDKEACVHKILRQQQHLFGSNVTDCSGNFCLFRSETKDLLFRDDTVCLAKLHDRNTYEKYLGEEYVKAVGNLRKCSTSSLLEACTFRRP
Chain of nucleolin (NCL) (P19338 whole entry): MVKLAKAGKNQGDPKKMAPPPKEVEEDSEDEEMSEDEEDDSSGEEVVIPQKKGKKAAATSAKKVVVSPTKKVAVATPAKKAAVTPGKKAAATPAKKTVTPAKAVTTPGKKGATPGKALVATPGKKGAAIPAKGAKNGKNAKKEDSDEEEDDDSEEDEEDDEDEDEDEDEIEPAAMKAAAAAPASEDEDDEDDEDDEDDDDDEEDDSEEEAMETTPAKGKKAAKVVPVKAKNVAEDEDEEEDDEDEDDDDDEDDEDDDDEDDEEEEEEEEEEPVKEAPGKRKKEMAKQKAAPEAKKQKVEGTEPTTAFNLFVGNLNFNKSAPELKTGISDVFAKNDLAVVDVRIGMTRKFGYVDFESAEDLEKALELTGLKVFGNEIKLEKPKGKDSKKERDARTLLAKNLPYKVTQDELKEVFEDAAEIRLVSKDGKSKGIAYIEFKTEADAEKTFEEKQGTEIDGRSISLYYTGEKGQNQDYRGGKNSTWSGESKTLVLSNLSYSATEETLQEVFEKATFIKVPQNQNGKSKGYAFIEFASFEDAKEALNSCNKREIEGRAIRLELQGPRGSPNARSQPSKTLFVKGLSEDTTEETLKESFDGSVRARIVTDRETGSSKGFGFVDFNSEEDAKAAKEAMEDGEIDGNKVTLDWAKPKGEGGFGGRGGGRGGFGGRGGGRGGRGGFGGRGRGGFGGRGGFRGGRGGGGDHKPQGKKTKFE
Chain of fibrinogen (Fibr) (P02671 20-629, chain 1 of 3): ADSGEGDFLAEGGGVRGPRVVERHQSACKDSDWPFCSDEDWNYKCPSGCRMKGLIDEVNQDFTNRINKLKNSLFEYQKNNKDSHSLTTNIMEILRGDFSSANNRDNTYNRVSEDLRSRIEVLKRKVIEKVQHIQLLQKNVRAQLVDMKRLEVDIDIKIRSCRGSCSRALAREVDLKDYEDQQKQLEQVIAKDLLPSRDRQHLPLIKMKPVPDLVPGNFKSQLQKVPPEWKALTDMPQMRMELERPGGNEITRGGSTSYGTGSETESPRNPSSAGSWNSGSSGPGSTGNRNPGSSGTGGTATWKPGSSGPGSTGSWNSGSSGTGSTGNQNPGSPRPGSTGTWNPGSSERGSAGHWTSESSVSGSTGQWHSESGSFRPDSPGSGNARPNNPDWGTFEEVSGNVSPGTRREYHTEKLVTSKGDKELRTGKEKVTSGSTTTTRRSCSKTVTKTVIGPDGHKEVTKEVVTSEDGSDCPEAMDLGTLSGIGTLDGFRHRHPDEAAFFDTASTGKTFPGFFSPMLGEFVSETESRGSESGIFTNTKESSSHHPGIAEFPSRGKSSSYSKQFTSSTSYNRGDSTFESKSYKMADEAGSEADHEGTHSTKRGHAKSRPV
Chain of fibrinogen (Fibr) (P02675 31-491, chain 2 of 3): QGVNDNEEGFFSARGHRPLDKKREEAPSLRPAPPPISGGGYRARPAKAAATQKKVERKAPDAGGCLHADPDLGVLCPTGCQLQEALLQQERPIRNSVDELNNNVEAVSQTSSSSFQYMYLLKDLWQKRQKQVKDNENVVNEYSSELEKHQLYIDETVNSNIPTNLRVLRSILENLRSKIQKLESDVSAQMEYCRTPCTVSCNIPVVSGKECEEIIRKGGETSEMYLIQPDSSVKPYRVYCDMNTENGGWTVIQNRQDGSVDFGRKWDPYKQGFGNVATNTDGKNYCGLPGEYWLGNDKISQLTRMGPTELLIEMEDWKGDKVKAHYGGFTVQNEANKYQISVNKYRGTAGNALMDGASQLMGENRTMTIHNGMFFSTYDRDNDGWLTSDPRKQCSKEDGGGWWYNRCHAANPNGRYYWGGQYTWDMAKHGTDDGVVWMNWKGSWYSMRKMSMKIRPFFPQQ
Chain of fibrinogen (Fibr) (P02679 27-433, chain 3 of 3): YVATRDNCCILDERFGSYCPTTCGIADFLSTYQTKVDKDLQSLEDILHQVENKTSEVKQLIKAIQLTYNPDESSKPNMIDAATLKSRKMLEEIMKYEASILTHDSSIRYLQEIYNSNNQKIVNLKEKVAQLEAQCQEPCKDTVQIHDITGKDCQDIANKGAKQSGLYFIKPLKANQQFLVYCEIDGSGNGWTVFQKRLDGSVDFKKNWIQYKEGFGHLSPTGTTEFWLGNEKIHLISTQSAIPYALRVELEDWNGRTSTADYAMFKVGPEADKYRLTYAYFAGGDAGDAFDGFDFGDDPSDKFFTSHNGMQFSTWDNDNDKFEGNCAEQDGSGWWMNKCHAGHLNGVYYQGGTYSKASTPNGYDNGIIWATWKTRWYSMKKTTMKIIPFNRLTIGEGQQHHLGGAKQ

B1: G5mut (ssDNA)
DNA: ATCAGGCTGGATGGTAGCTCGGTCGATGTGGATGGTTTGTCAAGTCTGATTA
- binding result [1]: no binding

B2: 36t (structured_DNA)
DNA: CACAGGCTACGGCACGTAGAGCATCACCATGATCCTGTG
- Kd (PDGF-BB): < 1 nM

B3: AS1411 (structured_DNA)
DNA: TTTGGTGGTGGTGGTTGTGGTGGTGGTGG
- Kd (nucleolin (NCL)): 30 nM

B4: CLN3 (structured_DNA)
DNA: ATCAGGTGGATGGTAGCTCGGTCGGGGTGGGTGGGTTGGCAAGTCTGATTA
- binding result (transferrin (Tf)): no binding
- binding result (fibrinogen (Fibr)): no binding
- Kd [2]: 5 ± 1 nM
- Kd [3]: 5 nM
- Kd [4]: ~25 nM
